Binding result, EC50 and Kd data for 1 molecule are collected here from patent publication US20230348607A1 (EXELIXIS, published 2023).

One experiment addresses T1, rat AMHR-II-ECD-Fc (rat, UniProt Q62893 18-144).
T1 construct: extracellular domain; Bought reagent (R&D Systems); also called rat AMHR-II receptor; not shown: Fc part of the bought fusion protein (R&D Systems)
T1 sequence (looked up): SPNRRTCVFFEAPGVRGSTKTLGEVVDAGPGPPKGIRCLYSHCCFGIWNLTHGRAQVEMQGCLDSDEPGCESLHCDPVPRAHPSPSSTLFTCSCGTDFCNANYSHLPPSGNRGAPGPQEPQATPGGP
Description: ELISA, 100 ng per well coated Fc fusion, serially diluted 4A3. The protocol:
(§1) The binding capacity of the anti-AMHR-II 4A3 antibody was evaluated by ELISA. ELISA plates (96 wells, Maxisorp, Nunc) were coated overnight at +4° C. with 100 ng per well of human AMHR-II-ECD-Fc, rat AMHR-II-ECD-Fc or human ALK3-ECD-Fc (R&D Systems).
(§2) Coated plates were blocked with PBS-BSA 2% for 1 hour at 37° C. and washed three times with PBS-Tween20 0.05%. The anti-AMHR-II 4A3 antibody was serially diluted in PBST-BSA1% and incubated for 1 hour at 37° C. The bound anti-AMHR-II 4A3 was detected by adding HRP-conjugated F(ab′)2 goat anti-human F(ab′)2 fragment specific (Interchim) diluted at 1:10000 and incubated for one hour at 37° C. Revelation was done with TMB (Sigma) and the reaction was stopped by adding H₂SO₄ 1N (v:v). Absorbances were measured at 450 nm and binding data curves were analysed using GraphPad Prism 8 software.
For orientation: An ELISA detects its analyte on a solid surface through an enzyme-linked reagent.

The target of the next experiment is T2, human ALK3-ECD-Fc (human, UniProt P36894 24-152).
T2 construct: extracellular domain; Bought reagent (R&D Systems), used as negative control; also called human ALK3 receptor; negative control; not shown: Fc part of the bought fusion protein (R&D Systems)
T2 sequence (P36894 24-152): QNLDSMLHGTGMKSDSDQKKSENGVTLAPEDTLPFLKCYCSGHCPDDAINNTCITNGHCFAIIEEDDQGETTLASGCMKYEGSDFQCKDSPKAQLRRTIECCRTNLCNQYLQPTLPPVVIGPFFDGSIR
The description is as above. The protocol:
as §1, §2

Another experiment concerns the target T3, human AMHR-II-ECD-Fc (human, UniProt Q16671 18-149).
T3 construct: Bought reagent (R&D Systems); Only its extracellular domain stood in the assay; also called extracellular domain of human AMHR-II receptor; not shown: Fc part of the bought fusion protein (R&D Systems)
Description: ELISA, coated human AMHR-II-ECD-Fc, detection with HRP anti-human F(ab')2. The protocol:
as §1, §2

The target of experiment [1] is T4, human AMHR-II receptor expressed at the surface of the COV434-AMHR-II transfected cell line (human, UniProt Q16671 18-573).
T4 sequence: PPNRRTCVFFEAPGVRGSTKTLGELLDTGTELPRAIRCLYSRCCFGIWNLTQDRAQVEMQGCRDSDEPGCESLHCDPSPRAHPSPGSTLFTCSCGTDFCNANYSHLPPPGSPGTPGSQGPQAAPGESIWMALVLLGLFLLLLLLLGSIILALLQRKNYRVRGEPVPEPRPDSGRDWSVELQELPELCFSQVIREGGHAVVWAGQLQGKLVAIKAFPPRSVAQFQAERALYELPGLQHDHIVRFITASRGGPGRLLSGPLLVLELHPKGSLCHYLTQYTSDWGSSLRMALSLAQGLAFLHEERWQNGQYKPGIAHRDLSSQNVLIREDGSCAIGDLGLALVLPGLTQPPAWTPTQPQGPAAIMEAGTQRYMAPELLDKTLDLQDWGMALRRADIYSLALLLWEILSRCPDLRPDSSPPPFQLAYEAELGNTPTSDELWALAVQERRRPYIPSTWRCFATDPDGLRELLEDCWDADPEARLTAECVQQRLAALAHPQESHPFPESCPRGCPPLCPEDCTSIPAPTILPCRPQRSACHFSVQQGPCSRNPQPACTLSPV
Description: flow cytometry on COV434 AMHR-II transfected cells, 67 nM to 0.2 pM, one-site specific binding fit. The procedure: For Fluorescent-activated cell sorting (FACS) analysis, 3×10⁵ cells were incubated for 1 hour at 4° C. with 10 μg/ml of 4A3 antibody (FIG. 2A) or with a range of 4A3 concentrations (from 67 nM to 0.2 pM, FIG. 2B). After washes, Phycoerythrin-conjugated anti-human IgG antibody (1:200, Interchim) was added for 1 hour at 4° C. FACS analysis of the resuspended cells was done on a BD Accuri™ C6 flow cytometer (BD Bioscience). Binding affinity were determined using GraphPad Prism 8 with “one-site specific binding” fit equation.
A general note: A flow cytometer gives signals particle by particle.

B1: anti-AMHR-II 4A3 antibody (antibody, human IgG1, lambda, V domains shown)
VH: EVQLVESGGSLVKPGGSLRLSCAASGFTFSNNAMNWVRQAPGKGLEWISYISGSSRYISYADFVKGRFTISRDNAKNSLYLQMNSLRAEDTAVYYCVRSSDDYFGGGMDVWGRGTLVTVSS
VL: QSVLTQPASVSGSPGQSITISCAGTSSDVGGDNDVSWYQQHPGKAPKLMIYYDSYRPSGVSNRFSGSKSGNTASLTISGLQAEDEADYYCSSSTYYSTRVFGGGTKLTVLG
notes: The tie is therefore indirect; 4A3 was detected with anti-human F(ab')2 and anti-human IgG secondary reagents; also called antibody 4A3; 4A3 antagonist antibody
A word on the EC50: it is the concentration needed to bring the measured effect to its halfway point. A low value points to greater potency. The Kd is a measure of binding affinity in units of concentration. Take B1: the binding result in the experiment with rat AMHR-II-ECD-Fc and in the experiment with human ALK3-ECD-Fc was “no binding” throughout. In the experiment with human AMHR-II-ECD-Fc, this molecule showed an EC50 of 6 nM. Moreover, the Kd in experiment [1] was determined as 2.1 nM.
